{"source": "patent US20060142171A1", "about": "“Novel alkaline protease” (priority 2003, published 2006)", "molecules": {"B1": {"name": "AL protease (alkaline protease from Nesterenkonia sp. nov. strain AL, DSM 15380) (protein)", "chain": "QNPADSPHIGKVFFSTNQGDFVCSANIVASANQSTVATAGHCLHDGNGGQFARNFVFAPAYDYGESEHGVWAAEELVTSAEWANRGDFEHDYAFAVLETKGGTTVQQQVGTASPIAFNQPRGQYYSAYGYPAAAPFNGQELHSCHGTATNDPMGSSTQGIPCNMTGGSSGGPWFLGQGTGGAQNSVNSYGYTFLPDVMFGPYFGSGAQQNYNYAST"}, "B2": {"name": "Subtilisin Carlsberg: bacterial protease, type VIII; Sigma; one of the first commercial alkaline proteases (protein, UniProt P00780 106-379, looked up)", "Subtilisin Carlsberg": "AQTVPYGIPLIKADKVQAQGFKGANVKVAVLDTGIQASHPDLNVVGGASFVAGEAYNTDGNGHGTHVAGTVAALDNTTGVLGVAPSVSLYAVKVLNSSGSGSYSGIVSGIEWATTNGMDVINMSLGGASGSTAMKQAVDNAYAKGVVVVAAAGNSGSSGNTNTIGYPAKYDSVIAVGAVDSNSNRASFSSVGAELEVMAPGAGVYSTYPTNTYATLNGTSMASPHVAGAAALILSKHPNLSASQVRNRLSSTATYLGSSFYYGKGLINVEAAAQ"}}, "key": {"[1]": {"target": "T1, N-succinyl-Ala-Ala-Pro-Leu-p-nitroanilide", "T1 chain": "AAPL"}, "[2]": {"target": "T2, N-succinyl-Phe-Leu-Phe thiobenzyl ester", "T2 chain": "FLF"}, "[3]": {"target": "T3, N-succinyl-Ala-Ala-Pro-Phe-p-nitroanilide", "T3 chain": "AAPF"}, "[4]": {"target": "T4, N-succinyl-Leu-Leu-Val-Tyr-7-amino-4-methyl coumarin", "T4 chain": "LLVY"}, "[5]": {"target": "T5, N-succinyl-Ala-Ala-Phe-7-amino-4-methyl coumarin", "T5 chain": "AAF"}, "[6]": {"target": "T6, N-succinyl-Leu-Tyr-7-amino-4-methyl coumarin", "T6 chain": "LY"}, "[7]": {"substrate": "CCCC(=O)Oc1ccc([N+](=O)[O-])cc1", "experiment": "Assay with synthetic peptide, pNA, AMC, NNap and ester substrates (kinetic parameters)", "format": "biochemical, Nesterenkonia sp. AL", "settings": "other: substrate marked b (footnote not given), 50 mM Tris-HCl buffer, pH 9"}, "[8]": {"experiment": "Circular dichroism spectroscopy", "format": "physicochemical", "procedure": "The conformational stability of the AL protease was examined by circular dichroism (CD) spectroscopy and compared with that of Subtilisin Carlsberg (bacterial protease, type VIII; Sigma Chemical Co., St. Louis, USA). The CD spectra of the proteins were obtained on a Jasco spectropolarimeter model J-720, at 25° C. in the far UV range from 195 to 250 nm at a scan rate of 10 nm/min using a sample cell path length of 0.1 cm. The ellipticity values (θ) for every nm wavelength increase were obtained in mdeg directly from the instrument and were recorded online in a computer. An average of 6 scans was calculated and the corresponding no-enzyme spectra were subtracted for each sample."}, "[9]": {"experiment": "Differential scanning calorimetry", "format": "physicochemical", "procedure": "The influence of different parameters including pH, calcium ions, EDTA, and detergent on thermal stability of the AL protease was investigated by differential scanning calorimetry (DSC). Comparative studies were also performed with Subtilisin Carlsberg. Thermal scans of AL protease (0.3 mg protein/ml) and subtilisin (2.5 mg protein/ml in the presence of 1 mM phenyl-methanesulfonyl fluoride (PMSF); Sigma) were performed by increasing temperature from 25° C. to 95° C. at a scan rate of 1° C. per min on a VP-DSC (MicroCal, Northampton, Mass.). The thermograms were corrected by subtracting the base line, obtained from a blank scan of the no-enzyme solution, and normalized for protein concentration. The unfolding transition of the AL protease was fitted to a two-state model. The Tm (temperature at which heat capacity change is a maximum), the calorimetric (or true) enthalpy ΔHcal (peak area), and van't Hoff (or apparent) enthalpy AHVH (calculated from the shape of thermogram) were calculated using the Origin software provided by MicroCal."}, "[10]": {"experiment": "Autolytic degradation by SDS-PAGE", "format": "physicochemical", "settings": "incubation at 50° C. up to 24 h; not shown", "procedure": "Autolytic degradation of the protease was investigated by SDS-PAGE. The AL protease and Subtilisin Carlsberg were individually incubated in 10 mM Tris-HCl buffer 8 for 24 h at 50° C. Electrophoresis of the enzyme samples taken at different time intervals was performed according to the method of Laemmli, on 12% polyacrylamide gel using a Mini Protean II equipment (Bio-Rad, Richmond, Calif.)."}, "[11]": {"settings": "0.1% (w/v) SDS vs untreated, pH 10.0"}, "[12]": {"settings": "untreated, 10 mM glycine-NaOH buffer, pH 10.0 (subtilisin with 1 mM PMSF)"}, "[13]": {"settings": "untreated, 10 mM glycine-NaOH buffer, pH 10.0 (subtilisin with 1 mM PMSF), listed as Subtilisin"}}}
{"molecule": "B1", "values": [{"measurement": "Km", "setting": "[1]", "result": 9300, "unit": "µM"}, {"measurement": "kcat", "setting": "[1]", "result": 6650, "unit": "s⁻¹"}, {"measurement": "kcat/Km", "setting": "[1]", "result": 715000, "unit": "M⁻¹ s⁻¹"}, {"measurement": "specific activity toward synthetic substrate", "setting": "[2]", "result": "only able of hydrolysing those substrates at a very low rate when high substrate concentration (10 mM) was used; between 0.002 to 0.008 U/mg"}, {"measurement": "Km", "setting": "[3]", "result": 2970, "unit": "µM"}, {"measurement": "kcat", "setting": "[3]", "result": 4390, "unit": "s⁻¹"}, {"measurement": "kcat/Km", "setting": "[3]", "result": "1.48e+06", "unit": "M⁻¹ s⁻¹"}, {"measurement": "Km", "setting": "[4]", "result": 15, "unit": "µM"}, {"measurement": "kcat", "setting": "[4]", "result": 51.7, "unit": "s⁻¹"}, {"measurement": "kcat/Km", "setting": "[4]", "result": "3.45e+06", "unit": "M⁻¹ s⁻¹"}, {"measurement": "specific activity toward synthetic substrate", "setting": "[5]", "result": "only able of hydrolysing those substrates at a very low rate when high substrate concentration (10 mM) was used; between 0.002 to 0.008 U/mg"}, {"measurement": "specific activity toward synthetic substrate", "setting": "[6]", "result": "only able of hydrolysing those substrates at a very low rate when high substrate concentration (10 mM) was used; between 0.002 to 0.008 U/mg"}, {"measurement": "Km", "setting": "[7]", "result": 1050, "unit": "µM"}, {"measurement": "kcat", "setting": "[7]", "result": 63.7, "unit": "s⁻¹"}, {"measurement": "kcat/Km", "setting": "[7]", "result": 60800, "unit": "M⁻¹ s⁻¹"}]}
{"molecule": "B2", "values": [{"measurement": "Secondary structure in the presence of SDS", "setting": "[8]; 0.1-1% (w/v) SDS, data not shown", "result": "complete loss of secondary structure"}, {"measurement": "Secondary structure after incubation", "setting": "[8]; 24 h at 50° C., 10 mM glycine-NaOH buffer, pH 10.0", "result": "substantial loss of structure"}, {"measurement": "Tm on addition of Ca^2+", "setting": "[9]; 1 mM PMSF present, pH 10.0", "result": "remained unchanged"}, {"measurement": "Lowering of Tm", "setting": "[9]; 10 mM EDTA, 1 mM PMSF present", "result": 10, "unit": "°C"}, {"measurement": "ΔHcal", "setting": "[9]; 10 mM EDTA, 1 mM PMSF present", "result": 152, "unit": "kcal/mol"}, {"measurement": "Decrease in Tm", "setting": "[9]; [11]", "result": 13, "unit": "°C"}, {"measurement": "Decrease in ΔHcal", "setting": "[9]; [11]", "result": 59, "unit": "kcal/mol"}, {"measurement": "Further lowering in Tm", "setting": "[9]; 0.2% SDS vs 0.1% SDS, pH 10.0", "result": 3, "unit": "°C"}, {"measurement": "Further lowering in ΔHcal", "setting": "[9]; 0.2% SDS vs 0.1% SDS, pH 10.0", "result": 41, "unit": "kcal/mol"}, {"measurement": "Tm", "setting": "[9]; +0.1% SDS, pH 10.0", "result": "54.5 ± 0.02", "unit": "°C"}, {"measurement": "ΔHcal", "setting": "[9]; +0.1% SDS, pH 10.0", "result": "144 ± 0.5", "unit": "kcal/mol"}, {"measurement": "Tm", "setting": "[9]; +0.2% SDS, pH 10.0", "result": "51.1 ± 0.01", "unit": "°C"}, {"measurement": "ΔHcal", "setting": "[9]; +0.2% SDS, pH 10.0", "result": "103 ± 0.2", "unit": "kcal/mol"}, {"measurement": "Tm", "setting": "[9]; [12]", "result": 67.3, "unit": "°C"}, {"measurement": "ΔHcal", "setting": "[9]; [12]", "result": 203, "unit": "kcal/mol"}, {"measurement": "Tm", "setting": "[9]; [13]", "result": "67.3 ± 0.02", "unit": "°C"}, {"measurement": "ΔHcal", "setting": "[9]; [13]", "result": "203 ± 0.9", "unit": "kcal/mol"}, {"measurement": "Degradation on gel electrophoresis", "setting": "[10]", "result": "considerable degradation"}]}
